The values that follow come from patent publication US8802826B2, “Anti-clusterin antibodies and antigen binding fragments and their use to reduce tumor volume” (Alethia Biotherapeutics Inc., priority 2009, dated 2014).

One experiment relates to PANC-1 cells. The experiment in a line: Transwell Matrigel migration of TGFβ-stimulated pancreatic cancer cells. It is filed as cell-based, human. To be noted: 24 h incubation. On the procedure:
FIG. 12. H16B5 inhibits the migration of pancreatic cancer cell lines. PANC-1 cells were seeded in serum-free medium in the upper chamber of a 24-well Transwell plate containing a Matrigel barrier. The lower wells were filled with medium containing 10% FBS as a chemo-attractant. After a 24 h incubation in the presence or absence of TGFβ and/or h16B5 (as indicated), the number of cells in the Matrigel layer were stained and counted.
Tumors derived from 4 different human pancreatic cell lines were obtained which were fixed in formalin, embedded in paraffin, and section on glass slides. Immunohistochemistry was conducted with h16B5 antibody to determine if tumors derived from this cancer indication expressed clusterin. The tumors were derived from Aspc-1, BxPC-3, PANC-1, and MiaPaCa-2 all of which were derived from pancreatic cancer patients (ATCC, Manassas, Va.). Paraffin-embedded epithelial pancreatic tumor samples were placed on glass slides and fixed for 15 min at 50° C. Deparaffinization was conducted by treating 2× with xylene followed by dehydration in successive 5 min washes in 100%, 80%, and 70% ethanol. The slides were washed 2× in PBS for 5 min and treated with antigen retrieval solution (citrate-EDTA) to unmask the antigen. […] H16B5-reactive clusterin was detected by incubating with biotin-conjugated human anti-kappa followed by streptavidin-HRP tertiary antibody. […]

The next experiment has as its target T1, murine clusterin (Mus musculus, UniProt Q06890).
T1 construct: murine clusterin that was expressed in BR1-JM01 cells; endogenous in cells; host or cells: BR1-JM01 mouse mammary carcinoma cells
The experiment in a line: immunofluorescence on BR1-JM01 cells. Type of experiment: binding.

The target of experiment [1] is T2, human clusterin (recombinant monomeric clusterin) (Homo sapiens, UniProt P10909).
T2 construct: Recombinant monomeric clusterin was immobilized on a CM3 chip with normal amine coupling method
T2 sequence (P10909 23-449): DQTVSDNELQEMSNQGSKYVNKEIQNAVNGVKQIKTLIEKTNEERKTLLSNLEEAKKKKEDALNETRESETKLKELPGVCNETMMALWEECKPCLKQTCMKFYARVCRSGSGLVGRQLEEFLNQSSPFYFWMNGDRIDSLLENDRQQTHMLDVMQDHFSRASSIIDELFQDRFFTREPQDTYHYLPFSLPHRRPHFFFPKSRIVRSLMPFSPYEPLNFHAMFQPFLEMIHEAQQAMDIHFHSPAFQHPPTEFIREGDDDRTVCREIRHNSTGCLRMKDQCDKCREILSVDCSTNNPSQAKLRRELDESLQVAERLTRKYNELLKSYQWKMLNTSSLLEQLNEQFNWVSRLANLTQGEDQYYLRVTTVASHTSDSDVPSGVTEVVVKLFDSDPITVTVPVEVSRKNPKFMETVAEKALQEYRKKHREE
The experiment in a line: BIAcore kinetic analysis of antibody binding to immobilized clusterin. How it is done:
The purpose of these investigations is to determine the kinetics parameters of anti-clusterin antibodies. In particular, to determine whether the humanization of the 16B5 and 21B12 anti-clusterin monoclonal antibody affects the kinetics parameters of its binding to human clusterin. To this end, a kinetic analysis method was developed using the BIAcore 3000. Human clusterin was immobilized on a sensor chip. Full length antibodies or Fab fragments were injected and allowed to interact with the immobilized clusterin. This example described the exemplary antibody 16B5 but the 21B12 exemplary antibody was prepared and tested in a similar manner.
HBST (10 mM Hepes pH 7.4, 135 mM NaCl, 3.4 mM EDTA, 0.005% Tween 20) was used as running buffer for all BIAcore experiments. Recombinant monomeric clusterin was immobilized on a CM3 chip with normal amine coupling method at a flow of 5 μl/min. Surface was activated with 35 μl of a mixture of 50 mM NHS/0.2M EDC. Clusterin in 10 mM Na-acetate pH 4.5 was injected until a desired amount was captured (below 60RU). Unreacted esters were deactivated with 35 μL1 of 1M ethanolamine hydrochloride-NaOH pH8.5. A control surface was prepared by injecting NHS/EDC and ethanolamine in the same manner.
Kinetics analysis was conducted at a flow of 50 μl/min. Full length antibodies (mouse or humanized) or Fab were diluted in HBST. Concentration range was from 1.953-31.25 nM for the full length antibodies and 15.625-250 nM for the Fab. Each concentration was injected over the clusterin and a control surface for 5 min followed with a 5 min dissociation wash. The clusterin surface was regenerated between each antibody injection with 50 μl of 20 mM HCl.

Experiment [2] deals with BRI-JM01 mouse mammary carcinoma cells. The experiment in a line: internalization of fluorescently labelled secreted clusterin. The note with it: h16B5 10 μg/ml, labelled clusterin 250 ng/ml. It is filed as cell-based. How it is done:
FIG. 13. Secreted clusterin is internalized in cancer cells. Recombinant human clusteirn was expressed in 293-6E cells, purified, and labelled with Alexa Fluor 488 using a commercial labelling kit (Invitrogen). BRI-JM01 mouse mammary carcinoma cells were seeded on coverslips and treated with 250 ng/ml of labelled secreted clusterin. At the indicated times, the cells were washed with ice-cold PBS and fixed in 2% paraformaledyhyde. The slides were mounted with Antifade Gold and images were generated with a fluorescence microscope.
FIG. 14. H16B5 inhibits the internalization of secreted clusterin in cancer cells. The experiment was performed as described for FIG. 13. H16B5 was added at 10 μg/ml.
In order to begin to address this question, cell-based experiments were undertaken to determine if secreted clusterin interacted with cancer cells directly or via other secreted factors in the cell medium. In order to measure this, secreted clusterin was fluorescently labelled and incubated with BRI-JM01 mouse mammary carcinoma cells. […] As shown, the internalization increases over time in manner that is consistent with a receptor-mediated endocytic pathway. Furthermore, the punctate and perinuclear pattern of staining that results after 24 hours (see white arrows in FIG. 13) that is often observed in proteins that are internalized along the endosomal pathway. […]

T1 sequence (Q06890 22-448): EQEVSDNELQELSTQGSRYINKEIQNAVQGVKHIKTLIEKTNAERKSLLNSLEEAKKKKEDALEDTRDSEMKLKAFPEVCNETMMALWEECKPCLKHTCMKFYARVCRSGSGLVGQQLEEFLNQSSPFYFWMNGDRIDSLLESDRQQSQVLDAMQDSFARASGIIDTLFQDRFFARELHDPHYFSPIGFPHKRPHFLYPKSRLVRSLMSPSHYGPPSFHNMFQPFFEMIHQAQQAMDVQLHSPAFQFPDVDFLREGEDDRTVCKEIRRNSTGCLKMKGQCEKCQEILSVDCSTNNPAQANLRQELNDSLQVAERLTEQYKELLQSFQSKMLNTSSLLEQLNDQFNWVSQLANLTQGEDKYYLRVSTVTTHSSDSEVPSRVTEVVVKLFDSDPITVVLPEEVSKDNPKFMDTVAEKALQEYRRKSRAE

For the substance “h16B5: humanized anti-clusterin IgG2 antibody, heavy chain SEQ ID NO.:9 and light chain SEQ ID NO.:10”, in the experiment on PANC-1 cells, the “migration of TGFβ-stimulated cells into the Matrigel” value is “severely inhibited”. In the experiment with murine clusterin, the “detection of murine clusterin expressed in BR1-JM01 cells” value was “detected murine clusterin”. The “kinetics parameters compared with the parent mouse antibody” value in experiment [1] (full length vs full length, Fab vs Fab) is “very similar”. In experiment [1] (stated in words), the “KD of the interaction with immobilized human clusterin” value is on record as “low nM range”. Further, in experiment [2], the “internalization of secreted clusterin into JM01 cells” value is on record as “blocked”.
